Consider 7 molecules from publication PMC9755262 (Nature Communications, 2022).

In test [1] the target is GST-NUT8 wild type (396-470) (UniProt Q86Y26). The experiment in a line: BLI; GST-NUT8 wild type or mutants loaded on Anti-GST biosensors, TAZ2 (1723-1836) as analyte; 25 °C; 1x PBS, 0.1% BSA, 0.02% Tween 20; steady-state analysis. (BLI is a label-free optical method that tracks binding on a fibre tip over time.)
Test [2] concerns the target T1, p300 TAZ2 domain (1723-1836), Q09472.
T1 chain: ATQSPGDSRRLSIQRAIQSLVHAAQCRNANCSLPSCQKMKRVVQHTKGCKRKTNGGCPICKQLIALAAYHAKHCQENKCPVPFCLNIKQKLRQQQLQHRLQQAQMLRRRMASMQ
The experiment in a line: BLI. Particulars: chain shown with the change, read off a plot.

Test [3] addresses T2, NUT-F1c (347-588), tag cleaved (UniProt Q86Y26 347-588).
T2 construct: not shown: His6-GST (pETM-30) or His6 (pETM11), N-terminal, cleaved
The experiment in a line: SEC; complex run on HiLoad Superdex 200, Superdex 200 Increase 10/300 GL or Superdex 75 Increase 10/300 GL; SDS-PAGE of the peak fractions. Particulars: both partners purified. Background: SEC sorts molecules by how far they enter the pores of the column.

A further test concerns the target T3, NUT4 (347-480), Q86Y26.
T3 chain: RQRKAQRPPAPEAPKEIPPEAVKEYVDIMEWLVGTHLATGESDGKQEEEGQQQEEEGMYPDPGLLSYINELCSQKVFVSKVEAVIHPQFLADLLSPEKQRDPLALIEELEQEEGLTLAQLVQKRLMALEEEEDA
The experiment in a line: SEC-MALS; Superdex 75 Increase 10/300 GL, 20 mM HEPES pH 7.0, 300 mM NaCl, 5 µM ZnSO4, 0.5 mM TCEP; 50 µl at 2 mg/ml injected.

“p300 TAZ2 domain (1723-1836) (from UniProt Q09472 1723-1836) (domain or fragment)”: the Kd (commonly the free concentration of one partner at which half of the binding sites on the other are occupied at equilibrium, for simple one-to-one binding) in test [1] came out at 960 nM.

B1: GST-NUT8 wild type D407K; L410A; Y413K; C418G; F423A; V424G; E428S; V430G; P433G; F435S; L439G; L440S; D447K; A450G; L451S; E454K; L455S; E458K; E459S; L461G; … (protein)
chain: GQQQEEEGMYPKPGALSKINELGSQKVAGSKVSAGIHGQSLADGSSPEKQRKPLGSIEKSEQKSGGSLAQLVQKRLMALEEEEDAE
For the molecule B1, the response in test [2] (TAZ2 10 µM, parent: est. 0.22) is 0.03 nm.

B2: p300 CH3 domain (1660-1815) (domain or fragment, UniProt Q09472 1660-1815, looked up)
chain: TQSQDRFVYTCNECKHHVETRWHCTVCEDYDLCITCYNTKNHDHKMEKLGLGLDDESNNQQAAATQSPGDSRRLSIQRCIQSLVHACQCRNANCSLPSCQKMKRVVQHTKGCKRKTNGGCPICKQLIALCCYHAKHCQENKCPVPFCLNIKQKLRQ
notes: p300 CH3 domain, residues 1660-1815, in pGEX-5x1 with a TEV-cleavable GST tag
B2: the binding result in test [3] was “binds”.

B3: GST-NUT8 wild type D447A; L449A; A450G; L451A; E453A; E454A; L455A; E456A; E458A; E459A; L461A; T462A (protein)
chain: GQQQEEEGMYPDPGLLSYINELCSQKVFVSKVEAVIHPQFLADLLSPEKQRAPAGAIAAAAQAAGAALAQLVQKRLMALEEEEDAE
For the molecule B3, the response in test [2] (TAZ2 2.5 µM, parent: est. 0.18) was 0.07 nm; in test [2] (TAZ2 5 µM, parent: est. 0.21), 0.11 nm; in test [2] (TAZ2 10 µM, parent: est. 0.22), 0.13 nm.

B4: GST-NUT8 wild type L436A; L439A; L440A; D447A; L449A; A450G; L451A; E453A; E454A; L455A; E456A; E458A; E459A; L461A; T462A (protein)
chain: GQQQEEEGMYPDPGLLSYINELCSQKVFVSKVEAVIHPQFAADAASPEKQRAPAGAIAAAAQAAGAALAQLVQKRLMALEEEEDAE
With B4, the response in test [2] (TAZ2 2.5 µM, parent: est. 0.18) turned out to be 0.075 nm; in test [2] (TAZ2 5 µM, parent: est. 0.21) it was 0.14 nm; in test [2] (TAZ2 10 µM, parent: est. 0.22), 0.2 nm.

B5: p300 TAZ2 domain (construct limits not told for the experiment) (domain or fragment)
chain: ATQSPGDSRRLSIQRAIQSLVHAAQCRNANCSLPSCQKMKRVVQHTKGCKRKTNGGCPICKQLIALAAYHAKHCQENKCPVPFCLNIKQKLRQQQLQHRLQQAQMLRRRMASMQ
modifications: not checked
Consider B5, for which the stoichiometry N – broadly, the number of molecules, sites or subunits per partner or assembly – with NUT4 (347-480), Q86Y26 amounted to 1.

B6: GST-NUT8 wild type L410A; L411A; Y413A; L417A; C418A; F423A; V424A; V427A; V430A; I431A; F435A; L436A; L439A; L440A; D447A; L449A; A450G; L451A; E453A; E454A; … (protein)
chain: GQQQEEEGMYPDPGAASAINEAASQKVAASKAEAAAHPQAAADAASPEKQRAPAGAIAAAAQAAGAALAQLVQKRLMALEEEEDAE
Take B6: the response in test [2] (TAZ2 10 µM, parent: est. 0.22) came to 0.085 nm.
